We go through four molecules from paper PMC5085234, “Monomeric gremlin is a novel vascular endothelial growth factor receptor-2 antagonist” (Oncotarget, 2016).

B3: his-tagged wild-type gremlin (gremlin^WT), rat (natural protein, UniProt O35793 25-184, looked up)
chain: KKKGSQGAIPPPDKAQHNDSEQTQSPPQPGSRTRGRGQGRGTAMPGEEVLESSQEALHVTERKYLKRDWCKTQPLKQTIHEEGCNSRTIINRFCYGQCNSFYIPRHIRKEEGSFQSCSFCKPKKFTTMMVTLNCPELQPPTKKKRVTRVKQCRCISIDLD
notes: secreted into the medium; covalent homodimer through Cys141; The IMAC-purified preparation holds monomer and dimer (used for non-reducing SDS-PAGE and SEC); the heparin 1.2 M NaCl fraction holds only the disulfide-linked dimer (98.5% purity) and is the form used in ELISA, SPR and cell assays; N-glycosylated and non-glycosylated forms are present; also called gremlin^WT dimer; dimeric gremlin^WT; …

The target of data set [1] is extracellular domain D1-7 of human VEGFR2 (ECD-VEGFR2) (human). The experiment in a line: SPR; BIAcore X; ECD-VEGFR2 immobilized on CM5 sensorchip (0.036-0.064 pmol/mm^2); gremlin 100 ng/mL to 4 ug/mL injected in HBS-EP; equilibrium responses fitted to the Langmuir equation for monovalent binding.
Data set [2] deals with the molecule itself. The experiment in a line: non-reducing SDS-PAGE with Western blot; conditioned medium of FGF2-T-MAE cells (treated with increasing H2O2 for 1 hour, then 4 hours fresh medium) immunoprecipitated with anti-gremlin antibody, WB under non-reducing conditions.
Data set [3] concerns the molecule itself. As to the kind of experiment: non-reducing SDS-PAGE with Western blot; recombinant his-tagged gremlin purified by IMAC (and heparin-affinity chromatography), SDS-PAGE without beta-mercaptoethanol, anti-gremlin WB, silver staining.
The target of data set [4] is T1, his-tagged gremlin^C141A mutant, rat (rat, UniProt O35793 25-184, C141A).
T1 construct: secreted into the medium; monomer; also called gremlin^C141A monomer; monomeric gremlin^C141A; not shown: His tag, C-terminal, kept
T1 sequence (looked up): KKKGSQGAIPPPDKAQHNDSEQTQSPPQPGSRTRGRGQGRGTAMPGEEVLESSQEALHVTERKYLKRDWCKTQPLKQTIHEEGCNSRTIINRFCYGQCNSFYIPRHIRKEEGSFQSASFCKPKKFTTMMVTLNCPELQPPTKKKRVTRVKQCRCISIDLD
As to the kind of experiment: ELISA; 96-well plates coated with 250 ng/mL of human BMP4, increasing concentrations of gremlin, bound gremlin detected with anti-gremlin antibody. The conditions noted are these: both partners purified.

For data set [5], the target named is B3. The description is as above. The conditions noted are these: both partners purified.

B1: his-tagged gremlin^C141A mutant, rat (natural protein)
chain: KKKGSQGAIPPPDKAQHNDSEQTQSPPQPGSRTRGRGQGRGTAMPGEEVLESSQEALHVTERKYLKRDWCKTQPLKQTIHEEGCNSRTIINRFCYGQCNSFYIPRHIRKEEGSFQSASFCKPKKFTTMMVTLNCPELQPPTKKKRVTRVKQCRCISIDLD
For B1, the Kd in data set [1] stood at 73 nM. This lies in the double-digit nanomolar range.

B2: endogenous murine gremlin (natural protein, UniProt O70326 25-184, looked up)
chain: KKKGSQGAIPPPDKAQHNDSEQTQSPPQPGSRTRGRGQGRGTAMPGEEVLESSQEALHVTERKYLKRDWCKTQPLKQTIHEEGCNSRTIINRFCYGQCNSFYIPRHIRKEEGSFQSCSFCKPKKFTTMMVTLNCPELQPPTKKKRVTRVKQCRCISIDLD
notes: gremlin, mouse, endogenous; immunoprecipitated with anti-gremlin antibody; Seen as 20-24 kDa monomers and 40-44 kDa dimers under non-reducing conditions; source: endogenous, lysates of healthy C57BL/6 murine organs; endogenous, conditioned medium of FGF2-T-MAE cells
Take B2: in data set [2], the “stoichiometry N” value was determined as 2. The molecule B3 yielded a Kd in data set [1] of 73 nM. Besides, in data set [3], the “stoichiometry N” value was found to be 2.

B4: human BMP4 (ligand, UniProt P12644 293-408, looked up)
chain: SPKHHSQRARKKNKNCRRHSLYVDFSDVGWNDWIVAPPGYQAFYCHGDCPFPLADHLNSTNHAIVQTLVNSVNSSIPKACCVPTELSAISMLYLDEYDKVVLKNYQEMVVEGCGCR
notes: bone morphogenetic protein 4, human; the ELISA paragraph says only human BMP4; also called immobilized BMP4; source: bought: R&D
In the case of B4, the binding result in data set [4] and in data set [5] was “binds” in each case.
